Where a chain is given by its changes, count along the chain named. Numbers in names are those of the source.
B1: target 1 insU 3' of 12,insA 3' of 3 (mixed)
RNA 1: CACCCGUGCAAAAAUGCAGGGGUCUAAAACUGAGCGGAUAACCUCUCUAUGG
RNA 2: GGGAAUGGAUCCACAUCUACGAAUUCGUACCAUAGAGAGGUUUAUCCGCUACACCGAGAUCGGAAGAGCACACGU
B2: target 1 insA 3' of 5,insA 3' of 3 (mixed)
RNA 1: B1 RNA 1
RNA 2: B1 RNA 2 with U43A, A44U, U45C, C47G, G48A
B3: target 1 U3G,U19G (mixed)
RNA 1: B1 RNA 1
RNA 2: GGGAAUGGAUCCACAUCUACGAAUUCGUACCAGAGAGAGGUUAUCCGCGCACCGAGAUCGGAAGAGCACACGU
B4: target 1 del1,del7 (mixed)
RNA 1: B1 RNA 1
RNA 2: GGGAAUGGAUCCACAUCUACGAAUUCGUACCAUAGAGAGGUUAUCGCUCCCGAGAUCGGAAGAGCACACGU
B5: target 1 insC 3' of 15,insC 3' of 10 (mixed)
RNA 1: B1 RNA 1
RNA 2: GGGAAUGGAUCCACAUCUACGAAUUCGUACCAUAGAGCAGGUUCAUCCGCUCACCGAGAUCGGAAGAGCACACGU
B6: target 1 U10G,A20C (mixed)
RNA 1: B1 RNA 1
RNA 2: B3 RNA 2 with A32C, G33U, U42G, G49U
B7: target 1 insG 3' of 6,insG 3' of 6 (mixed)
RNA 1: B1 RNA 1
RNA 2: B1 RNA 2 with U43A, A44U, U45C, C47G, C49G, U50C, A51U
B8: target 1 C6U,U11A (mixed)
RNA 1: B1 RNA 1
RNA 2: B3 RNA 2 with G33U, U41A, C46U, G49U
B9: target 1 C21U (mixed)
RNA 1: B1 RNA 1
RNA 2: B3 RNA 2 with C31U, G33U, G49U
B10: target 1 insU 3' of 15,insU 3' of 14 (mixed)
RNA 1: B1 RNA 1
RNA 2: B5 RNA 2 with C38U, G40U, U42G, C44U
B11: target 1 insU 3' of 6,insC 3' of 5 (mixed)
RNA 1: B1 RNA 1
RNA 2: B1 RNA 2 with U43A, A44U, U45C, C47U, U50C, A51U
B12: target 1 A1U,C4G (mixed)
RNA 1: B1 RNA 1
RNA 2: B3 RNA 2 with G33U, C48G, G49U, A51U
B13: target 1 insC 3' of 10,insU 3' of 9 (mixed)
RNA 1: B1 RNA 1
RNA 2: B1 RNA 2 with U43C, C46U, G48C, C49G, U50C, A51U
B14: target 1 A1U,C21U (mixed)
RNA 1: B1 RNA 1
RNA 2: B3 RNA 2 with C31U, G33U, G49U, A51U
B15: target 1 del2,del7 (mixed)
RNA 1: B1 RNA 1
RNA 2: B4 RNA 2 with C49A
B16: target 1 C6G (mixed)
RNA 1: B1 RNA 1
RNA 2: B3 RNA 2 with G33U, C46G, G49U
B17: target 1 insC 3' of 10,insU 3' of 1 (mixed)
RNA 1: B1 RNA 1
RNA 2: B1 RNA 2 with U43C, A51C, C52A, A53U
B18: target 1 insC 3' of 10,insA 3' of 2 (mixed)
RNA 1: B1 RNA 1
RNA 2: B1 RNA 2 with U43C, A51C, C52A
B19: target 1 del8 (mixed)
RNA 1: B1 RNA 1
RNA 2: GGGAAUGGAUCCACAUCUACGAAUUCGUACCAUAGAGAGGUUACCGCUCACCGAGAUCGGAAGAGCACACGU
B20: target 1 A1C,C21U (mixed)
RNA 1: B1 RNA 1
RNA 2: B3 RNA 2 with C31U, G33U, G49U, A51C
B21: target 1 insC 3' of 10,insC 3' of 1 (mixed)
RNA 1: B1 RNA 1
RNA 2: B1 RNA 2 with U43C, A51C, C52A, A53C
B22: target 1 U8C,C22U (mixed)
RNA 1: B1 RNA 1
RNA 2: B3 RNA 2 with C30U, G33U, U44C, G49U
B23: target 1 complement block 5-9 (mixed)
RNA 1: B1 RNA 1
RNA 2: B3 RNA 2 with G33U, A43U, U44A, C45G, C46G, G47C, G49U
B24: target 1 G17U (mixed)
RNA 1: B1 RNA 1
RNA 2: B3 RNA 2 with G33U, G35U, G49U
B25: target 1 A1G,C21U (mixed)
RNA 1: B1 RNA 1
RNA 2: B3 RNA 2 with C31U, G33U, G49U, A51G
B26: target 1 C7U,C22A (mixed)
RNA 1: B1 RNA 1
RNA 2: B3 RNA 2 with C30A, G33U, C45U, G49U
B27: target 1 U3G,C4A (mixed)
RNA 1: B1 RNA 1
RNA 2: B3 RNA 2 with G33U, C48A
B28: target 1 insC 3' of 10,insG 3' of 1 (mixed)
RNA 1: B1 RNA 1
RNA 2: B1 RNA 2 with U43C, A51C, C52A, A53G
B29: target 1 C4G (mixed)
RNA 1: B1 RNA 1
RNA 2: B3 RNA 2 with G33U, C48G, G49U

Target: T1, EsCas13d, nuclease-dead (Eubacterium siraeum, UniProt B0MS50, R295A;H300A;R849A;H854A)
T1 sequence: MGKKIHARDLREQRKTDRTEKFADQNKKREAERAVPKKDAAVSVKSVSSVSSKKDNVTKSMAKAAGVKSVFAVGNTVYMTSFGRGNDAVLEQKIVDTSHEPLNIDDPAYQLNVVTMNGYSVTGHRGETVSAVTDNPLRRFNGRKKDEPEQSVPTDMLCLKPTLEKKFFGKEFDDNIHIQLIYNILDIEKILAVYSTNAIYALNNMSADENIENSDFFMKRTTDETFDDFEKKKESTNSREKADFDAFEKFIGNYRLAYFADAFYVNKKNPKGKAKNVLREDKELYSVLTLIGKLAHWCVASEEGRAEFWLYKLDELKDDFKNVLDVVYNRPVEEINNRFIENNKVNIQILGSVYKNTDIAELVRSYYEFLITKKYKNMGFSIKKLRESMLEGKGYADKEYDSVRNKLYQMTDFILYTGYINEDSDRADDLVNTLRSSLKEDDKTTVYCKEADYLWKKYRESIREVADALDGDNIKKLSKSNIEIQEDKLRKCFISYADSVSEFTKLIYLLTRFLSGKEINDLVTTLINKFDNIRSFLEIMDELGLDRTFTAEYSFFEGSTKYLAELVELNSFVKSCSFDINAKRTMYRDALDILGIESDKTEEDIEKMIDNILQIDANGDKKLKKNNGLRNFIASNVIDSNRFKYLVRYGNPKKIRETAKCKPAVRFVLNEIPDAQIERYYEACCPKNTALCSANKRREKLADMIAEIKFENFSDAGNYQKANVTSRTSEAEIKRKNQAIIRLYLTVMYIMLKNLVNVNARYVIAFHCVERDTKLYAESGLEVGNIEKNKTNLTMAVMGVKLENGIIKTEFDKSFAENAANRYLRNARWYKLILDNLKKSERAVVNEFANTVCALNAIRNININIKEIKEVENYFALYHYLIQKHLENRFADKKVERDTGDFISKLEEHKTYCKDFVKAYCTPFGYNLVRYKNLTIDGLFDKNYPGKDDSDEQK
Experiment: crRNA (strand 1, pre-loaded); Mg2+; 40 mM Tris-HCl pH 7.5, 150 mM NaCl, 6 mM MgCl2, 1 mM DTT, 0.1% Tween-20, 0.2 mg/ml BSA; 25 C; 10 min per concentration, then washed
Settings: tags: His6-TwinStrep-SUMO cleaved; N-terminal SNAP kept (SNAP-Surface 488); label: 3' end held by stalled T7 RNA polymerase

| Binder | Kd [nM] |
| --- | --- |
| B1 | 5.8 ± 0.4 |
| B2 | 6.8 ± 0.6 |
| B3 | 35.9 ± 2.7 |
| B4 | 9.7 ± 0.6 |
| B5 | 17.3 ± 1.1 |
| B6 | 76 ± 29 |
| B7 | 11.4 ± 0.5 |
| B8 | 38.2 ± 2.4 |
| B9 | 6.47 ± 0.24 |
| B10 | 53 ± 4 |
| B11 | 13.9 ± 0.8 |
| B12 | 6.11 ± 0.25 |
| B13 | 66 ± 27 |
| B14 | 7.6 ± 0.4 |
| B15 | 6.62 ± 0.24 |
| B16 | 8.37 ± 0.31 |
| B17 | 26 ± 4 |
| B18 | 19.4 ± 2.4 |
| B19 | 10.5 ± 0.6 |
| B20 | 13 ± 4 |
| B21 | 13.5 ± 1 |
| B22 | 28 ± 4 |
| B23 | 17.2 ± 0.7 |
| B24 | 17 ± 1.3 |
| B25 | 6.38 ± 0.24 |
| B26 | 11 ± 0.5 |
| B27 | 4.19 ± 0.3 |
| B28 | 15.5 ± 1.4 |
| B29 | 5.3 ± 0.8 |

— paper PMC10786891, “Massively parallel profiling of RNA-targeting CRISPR-Cas13d”
